B1: Lipase, P19515 (parent)
chain: MVLKQRANYLGFLIVFFTAFLVEAVPIKRQSNSTVDSLPPLIPSRTSAPSSSPSTTDPEAPAMSRNGPLPSDVETKYGMALNATSYPDSVVQAMSIDGGIRAATSQEINELTYYTTLSANSYCRTVIPGATWDCIHCDATEDLKIIKTWSTLIYDTNAMVARGDSEKTIYIVFRGSSSIRNWIADLTFVPVSYPPVSGTKVHKGFLDSYGEVQNELVATVLDQFKQYPSYKVAVTGHSLGGATALLCALDLYQREEGLSSSNLFLYTQGQPRVGDPAFANYVVSTGIPYRRTVNERDIVPHLPPAAFGFLHAGEEYWITDNSPETVQVCTSDLETSDCSNSIVPFTSVLDHLSYFGINTGLCT

In the series the parent is B1. Conditions: Rhizomucor miehei; pH 8; Thermal; DSF; sodium phosphate buffer 50 mM; structure 6QPR; whole UniProt chain shown.

The source of these data is FireProtDB (doi:10.1128/aem.02129-17).

For orientation: Tm means the temperature at the midpoint of the melting transition. In the case of MVLKQRANYLGFLIVFFTAFLVEAVPIKRQSNSTVDSLPPLIPSRTSAPSSSPSTTDPEAPAMSRNGPLPSDVETKYGMALNATSYPDSVVQAMSIDGGIRAATSQEINELTYYTTLSANSYCRTVIPGATWDCIHCDATEDLKIIKTWSTLIYDTNAMVARGDSEKTIYIVFRGSSSIRNWIADLTFVPVSYPPVSGTKVHKGFLDSYGEVQNELVATVLDQFKQYPSYKVAVTGHSLGGATALLCALDLYQREEGLSSSNLFLYTQGQPRVGDPAFANYVVSTGIPYRRTVNERDIVPHLPPAAFGFLHAGEEYWITLNSPETVQVCTSDLETSDCSNSIVPFTSVLDHLSYFGINTGLCT [D320L], the Tm amounted to 58.7 °C and the “change of melting temperature, mutant - wild type (higher = more stable)” value (shortened to “change of melting temperature, mutant”) is -3.3 °C.
Consider MVLKQRANYLGFLIVFFTAFLVEAVPIKRQSNSTVDSLPPLIPSRTSAPSSSPSTTDPEAPAMSRNGPLPSDVETKYGMALNATSYPDSVVQAMSIDGGIRAATSQEINELTYYTTLSANSYCRTVIPGATWDCIHCDATEDLKIIKTWSTLIYDTNAMVARGDSEKTIYIVFRGSSSIRNWIADLTFVPVSYPPVSGTKVHKGFLDSYGEVQNELVATVLDQFKQYPSYKVAVTGHSLGGATALLCALDLYQREEGLSSSNLFLYTQGQPRVGDPAFALYVVSTGIPYRRTVNERDIVPHLPPAAFGFLHAGEEYWITDNSPETVQVCTSDLETSDCSNSIVPFTSVLDHLSYFGINTGLCT [N280L], for which the Tm worked out at 59.3 °C and the “change of melting temperature, mutant” value is -10 °C.
In the case of MVLKQRANYLGFLIVFFTAFLVEAVPIKRQSNSTVDSLPPLIPSRTSAPSSSPSTTDPEAPAMSRNGPLPSDVETKYGMALNATSYPDSVVQAMSIDGGIRAATSQEINELTYYTTLSANSYCRTVIPGATWDCIHCDATEDLKIIKTWSTLIYDTNAMVARGDSEKTIYIVFRGSSSIRNWIADLTFVPVSYPPVSGTKVHKGFLDSYGEVQNELVATVLDQFKQYPSYKVAVTGHSLGGATALLCALDLYQREEGLSSSNLFLYTQGQPRVGDPAFAWYVVSTGIPYRRTVNERDIVPHLPPAAFGFLHAGEEYWITDNSPETVQVCTSDLETSDCSNSIVPFTSVLDHLSYFGINTGLCT [N280W], the Tm was 55.6 °C and the “change of melting temperature, mutant” value is -3.1 °C.
Take MVLKQRANYLGFLIVFFTAFLVEAVPIKRQSNSTVDSLPPLIPSRTSAPSSSPSTTDPEAPAMSRNGPLPSDVETKYGMALNATSYPDSVVQAMSIDGGIRAATSQEINELTYYTTLSANSYCRTVIPGATWDCIHCDATEDLKIIKTWSTLIYDTNAMVARGDSEKTIYIVFRGSSSIRNWIADLTFVPVSYPPVSGTKVHKGFLDSYGEVQNELVATVLDQFKQYPSYKVAVTGHSLGGATALLCALDLYQREEGLSSSNLFLYTQGQPRVGDPAFANYVVSTGIPYRRTVNERDIVPHLPPAAFGFLHAGEEYWITDNSPFTVQVCTSDLETSDCSNSIVPFTSVLDHLSYFGINTGLCT [E324F]: the Tm was determined as 60.3 °C and the “change of melting temperature, mutant” value amounted to 1.6 °C.
For MVLKQRANYLGFLIVFFTAFLVEAVPIKRQSNSTVDSLPPLIPSRTSAPSSSPSTTDPEAPAMSRNGPLPSDVETKYGMALNATSYPDSVVQAMSIDGGIRAATSQEINELTYYTTLSANSYCRTVIPGATWDCIHCDATEDLKIIKTWSTLIYDTNAMVARGDSEKTIYIVFRGSSSIRNWIADLTFVPVSYPPVSGTKVHKGFLDSYGEVQNELVATVLDQFKQYPSYKVAVTGHSLGGATALLCALDLYQREEGLSSSNLFLYTQGQPRVGDPAFANYVVSTGIPYRRTVNERDIVPHLPPAAFGFLHAGEEYWITDNSPITVQVCTSDLETSDCSNSIVPFTSVLDHLSYFGINTGLCT [E324I], the Tm came to 64.4 °C and the “change of melting temperature, mutant” value stood at 5.7 °C.
MVLKQRANYLGFLIVFFTAFLVEAVPIKRQSNSTVDSLPPLIPSRTSAPSSSPSTTDPEAPAMSRNGPLPSDVETKYGMALNATSYPDSVVQAMSIDGGIRAATSQEINELTYYTTLSANSYCRTVIPGATWDCIHCDATEDLKIIKTWSTLIYDTNAMVARGDSEKTIYIVFRGSSSIRNWIADLTFVPVSYPPVSGTKVHKGFLDSYGEVQNELVATVLDQFKQYPSYKVAVTGHSLGGATALLCALDLYQREEGLSSSNLFLYTQGQPRVGDPAFANYVVSTGIPYRRTVNERDIVPHLPPAAFGFLHAGEEYWITDNSPLTVQVCTSDLETSDCSNSIVPFTSVLDHLSYFGINTGLCT [E324L]: the Tm was found to be 64.1 °C and the “change of melting temperature, mutant” value was 5.4 °C.
Consider MVLKQRANYLGFLIVFFTAFLVEAVPIKRQSNSTVDSLPPLIPSRTSAPSSSPSTTDPEAPAMSRNGPLPSDVETKYGMALNATSYPDSVVQAMSIDGGIRAATSQEINELTYYTTLSANSYCRTVIPGATWDCIHCDATEDLKIIKTWSTLIYDTNAMVARGDSEKTIYIVFRGSSSIRNWIADLTFVPVSYPPVSGTKVHKGFLDSYGEVQNELVATVLDQFKQYPSYKVAVTGHSLGGATALLCALDLYQREEGLSSSNLFLYTQGQPRVGDPAFANYVVSTGIPYRRTVNERDIVPHLPPAAFGFLHAGVEYWITDNSPETVQVCTSDLETSDCSNSIVPFTSVLDHLSYFGINTGLCT [E314V], for which the Tm came to 58.8 °C and the “change of melting temperature, mutant” value is -5.3 °C.
With MVLKQRANYLGFLIVFFTAFLVEAVPIKRQSNSTVDSLPPLIPSRTSAPSSSPSTTDPEAPAMSRNGPLPSDVETKYGMALNATSYPDSVVQAMSIDGGIRAATSQEINELTYYTTLSANSYCRTVIPGATWDCIHCDATEDLKIIKTWSTLIYDTNAMVARGDSEKTIYIVFRGSSSIRNWIADLTFVPVSYPPVSGTKVHKGFLDSYGEVQNELVATVLDQFKQYPSYKVAVTGHSLGGATALLCALDLYQREEGLSSSNLFLYTQGQPRVGDPAFANYVVSTGIPYRRTVNERDIVPHLPPAAFGFLHAGIEYWITDNSPETVQVCTSDLETSDCSNSIVPFTSVLDHLSYFGINTGLCT [E314I], the Tm was 58.7 °C and the “change of melting temperature, mutant” value was -2.7 °C.
Regarding MVLKQRANYLGFLIVFFTAFLVEAVPIKRQSNSTVDSLPPLIPSRTSAPSSSPSTTDPEAPAMSRNGPLPSDVETKYGMALNATSYPDSVVQAMSIDGGIRAATSQEINELTYYTTLSANSYCRTVIPGATWDCIHCDATEDLKIIKTWSTLIYDTNAMVARGDSEKTIYIVFRGSSSIRNWIADLTFVPVSYPPVSGTKVHKGFLDWYGEVQNELVATVLDQFKQYPSYKVAVTGHSLGGATALLCALDLYQREEGLSSSNLFLYTQGQPRVGDPAFANYVVSTGIPYRRTVNERDIVPHLPPAAFGFLHAGEEYWITDNSPETVQVCTSDLETSDCSNSIVPFTSVLDHLSYFGINTGLCT [S208W], the Tm was determined as 59.5 °C and the “change of melting temperature, mutant” value was determined as 3.9 °C.
Consider MVLKQRANYLGFLIVFFTAFLVEAVPIKRQSNSTVDSLPPLIPSRTSAPSSSPSTTDPEAPAMSRNGPLPSDVETKYGMALNATSYPDSVVQAMSIDGGIRAATSQEINELTYYTTLSANSYCRTVIPGATWDCIHCDATEDLKIIKTWSTLIYDTNAMVARGDSEKTIYIVFRGSSSIRNWIADLTFVPVSYPPVSGTKVHKGFLDFYGEVQNELVATVLDQFKQYPSYKVAVTGHSLGGATALLCALDLYQREEGLSSSNLFLYTQGQPRVGDPAFANYVVSTGIPYRRTVNERDIVPHLPPAAFGFLHAGEEYWITDNSPETVQVCTSDLETSDCSNSIVPFTSVLDHLSYFGINTGLCT [S208F], for which the Tm turned out to be 59.2 °C and the “change of melting temperature, mutant” value is -6.4 °C.
For the variant MVLKQRANYLGFLIVFFTAFLVEAVPIKRQSNSTVDSLPPLIPSRTSAPSSSPSTTDPEAPAMSRNGPLPSDVETKYGMALNATSYPDSVVQAMSIDGGIRAATSQEINELTYYTTLSANSYCRTVIPGATWDCIHCDATEDLKIIKTWSTLIYDTNAMVARGDSEKTIYIVFRGSSSIRNWIADLTFVPVSYPPVSGTKVHKGFLDYYGEVQNELVATVLDQFKQYPSYKVAVTGHSLGGATALLCALDLYQREEGLSSSNLFLYTQGQPRVGDPAFANYVVSTGIPYRRTVNERDIVPHLPPAAFGFLHAGEEYWITDNSPETVQVCTSDLETSDCSNSIVPFTSVLDHLSYFGINTGLCT [S208Y], the Tm came out at 58.9 °C and the “change of melting temperature, mutant” value is -5.5 °C.
Taken in the same sequence, the figures for MVLKQRANYLGFLIVFFTAFLVEAVPIKRQSNSTVDSLPPLIPSRTSAPSSSPSTTDPEAPAMSRNGPLPSDVETKYGMALNATSYPDSVVQAMSIDGGIRAATSQEINELTYYTTLSANSYCRTVIPGATWDCIHCDATEDLKIIKTWSTLIYDTNAMVARGDSEKTIYIVFRGSSSIRNWIADLTFVPVSYPPVSGTKVHKGFLDVYGEVQNELVATVLDQFKQYPSYKVAVTGHSLGGATALLCALDLYQREEGLSSSNLFLYTQGQPRVGDPAFANYVVSTGIPYRRTVNERDIVPHLPPAAFGFLHAGEEYWITDNSPETVQVCTSDLETSDCSNSIVPFTSVLDHLSYFGINTGLCT [S208V] were 59.1 °C and -4.9 °C.
Turning to MVLKQRANYLGFLIVFFTAFLVEAVPIKRQSNSTVDSLPPLIPSRTSAPSSSPSTTDPEAPAMSRNGPLPSDVETKYGMALNATSYPDSVVQAMSIDGGIRAATSQEINELTYYTTLSANSYCRTVIPGATWDCIHCDATEDLKIIKTWSTLIYDTNAMVARGDSEKTIYIVFRGSSSIRNWIADLTFVPVSYPPVSGTKVHKGFLDSYGEVQNELVATVLDQFKQYPSYKVAVTGHSLGGATALLCALDLYQREEGLSSSNLFLYTQGQPRVGDPAFANYVVSTGIPYRRTVNERDIVPHLPPAAFGFLHAGEEYWITDLSPETVQVCTSDLETSDCSNSIVPFTSVLDHLSYFGINTGLCT [N321L], the midpoint of thermal melting (Tm) was found to be 59.3 °C and the “change of melting temperature, mutant” value is -13 °C.
With MVLKQRANYLGFLIVFFTAFLVEAVPIKRQSNSTVDSLPPLIPSRTSAPSSSPSTTDPEAPAMSRNGPLPSDVETKYGMALNATSYPDSVVQAMSIDGGIRAATSQEINELTYYTTLSANSYCRTVIPGATWDCIHCDATEDLKIIKTWSTLIYDTNAMVARGDSEKTIYIVFRGSSSIRNWIADLTFVPVSYPPVSGTKVHKGFLDSYGEVQLELVATVLDQFKQYPSYKVAVTGHSLGGATALLCALDLYQREEGLSSSNLFLYTQGQPRVGDPAFANYVVSTGIPYRRTVNERDIVPHLPPAAFGFLHAGEEYWITDNSPETVQVCTSDLETSDCSNSIVPFTSVLDHLSYFGINTGLCT [N214L], the Tm was 59.2 °C and the “change of melting temperature, mutant” value was -7.5 °C.
As for MVLKQRANYLGFLIVFFTAFLVEAVPIKRQSNSTVDSLPPLIPSRTSAPSSSPSTTDPEAPAMSRNGPLPSDVETKYGMALNATSYPDSVVQAMSIDGGIRAATSQEINELTYYTTLSANSYCRTVIPGATWDCIHCDATEDLKIIKTWSTLIYDTNAMVARGDSEKTIYIVFRGSSSIRNWIADLTFVPVSYPPVSGTKVHKGFLDSYGEVQRELVATVLDQFKQYPSYKVAVTGHSLGGATALLCALDLYQREEGLSSSNLFLYTQGQPRVGDPAFANYVVSTGIPYRRTVNERDIVPHLPPAAFGFLHAGEEYWITDNSPETVQVCTSDLETSDCSNSIVPFTSVLDHLSYFGINTGLCT [N214R], the Tm was 59.4 °C and the “change of melting temperature, mutant” value was -13.6 °C.
In the case of MVLKQRANYLGFLIVFFTAFLVEAVPIKRQSNSTVDSLPPLIPSRTSAPSSSPSTTDPEAPAMSRNGPLPSDVETKYGMALNATSYPDSVVQAMSIDGGIRAATSQEINELTYYTILSANSYCRTVIPGATWDCIHCDATEDLKIIKTWSTLIYDTNAMVARGDSEKTIYIVFRGSSSIRNWIADLTFVPVSYPPVSGTKVHKGFLDSYGEVQNELVATVLDQFKQYPSYKVAVTGHSLGGATALLCALDLYQREEGLSSSNLFLYTQGQPRVGDPAFANYVVSTGIPYRRTVNERDIVPHLPPAAFGFLHAGEEYWITDNSPETVQVCTSDLETSDCSNSIVPFTSVLDHLSYFGINTGLCT [T116I], the Tm was found to be 61.1 °C and the “change of melting temperature, mutant” value stood at 2.4 °C.
